Assays:
Test in all cases: two-hybrid library CCmax;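 note: natural log of median RNA to DNA barcode read ratio; higher means stronger binding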
[1] = target: T1, 4H982-AA; settings: mean of both orientations
T1 chain: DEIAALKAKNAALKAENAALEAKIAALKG

[2] = target: T2, 4H3606-AA; settings: mean of both orientations
T2 chain: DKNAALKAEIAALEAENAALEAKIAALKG

[3] = target: T3, 4H1874-AA; settings: mean of both orientations
T3 chain: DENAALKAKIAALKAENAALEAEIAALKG

[4] = target: T4, 4H3697-AA; settings: mean of both orientations
T4 chain: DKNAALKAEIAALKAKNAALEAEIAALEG

[5] = target: T5, 4H3588-AA; settings: mean of both orientations
T5 chain: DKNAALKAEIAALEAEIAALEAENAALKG

[6] = target: T6, Q8-AA; settings: mean of both orientations
T6 chain: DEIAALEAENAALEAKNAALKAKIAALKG

[7] = target: T7, 4H1629-AA; settings: mean of both orientations
T7 chain: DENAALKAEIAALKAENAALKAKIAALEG

[8] = target: T8, 4H3865-AA; settings: mean of both orientations
T8 chain: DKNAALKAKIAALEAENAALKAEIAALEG

[9] = target: T9, 4H2553-AA; settings: mean of both orientations
T9 chain: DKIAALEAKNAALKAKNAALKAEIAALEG

[10] = target: T10, 4H3718-AA; settings: mean of both orientations
T10 chain: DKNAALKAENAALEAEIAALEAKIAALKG

[11] = target: T11, 4H2611-AA
T11 chain: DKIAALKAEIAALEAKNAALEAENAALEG

[12] = target: T12, 4H1845-AA; settings: mean of both orientations
T12 chain: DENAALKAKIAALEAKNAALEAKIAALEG

[13] = target: T13, 4H340-AA; settings: mean of both orientations
T13 chain: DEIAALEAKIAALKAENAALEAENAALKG

[14] = target: T14, 4H3378-AA; settings: mean of both orientations
T14 chain: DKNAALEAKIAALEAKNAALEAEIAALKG

[15] = target: T15, 4H1513-AA
T15 chain: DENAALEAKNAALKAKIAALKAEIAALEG

[16] = target: T16, 4H3627-AA; settings: mean of both orientations
T16 chain: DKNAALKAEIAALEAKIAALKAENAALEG

[17] = target: T17, 4H1594-AA; settings: mean of both orientations
T17 chain: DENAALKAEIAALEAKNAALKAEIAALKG

[18] = target: T18, 4H2944-AA; settings: mean of both orientations
T18 chain: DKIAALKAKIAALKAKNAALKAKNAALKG

[19] = target: T19, Q7-AA; settings: mean of both orientations
T19 chain: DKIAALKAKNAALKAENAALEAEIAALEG

[20] = target: T20, 4H697-AA; settings: mean of both orientations
T20 chain: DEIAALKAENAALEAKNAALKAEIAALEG

[21] = target: T21, Q3-AA; settings: mean of both orientations
T21 chain: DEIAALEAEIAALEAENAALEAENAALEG

[22] = target: T22, 4H2907-AA; settings: mean of both orientations
T22 chain: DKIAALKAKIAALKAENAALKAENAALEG

[23] = target: T23, 4H3133-AA; settings: mean of both orientations
T23 chain: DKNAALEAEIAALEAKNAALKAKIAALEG

[24] = target: T24, 4H2648-AA; settings: mean of both orientations
T24 chain: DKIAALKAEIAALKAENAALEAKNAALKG

[25] = target: T25, 4H32-AA; settings: mean of both orientations
T25 chain: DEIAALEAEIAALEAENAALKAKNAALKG

[26] = target: T26, 4H2198-AA; settings: mean of both orientations
T26 chain: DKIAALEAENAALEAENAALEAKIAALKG

[27] = target: T27, 4H384-AA; settings: mean of both orientations
T27 chain: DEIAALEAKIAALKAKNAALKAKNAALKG

[28] = target: T28, 4H3413-AA; settings: mean of both orientations
T28 chain: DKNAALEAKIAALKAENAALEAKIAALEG

[29] = target: T29, 4H3631-AA; settings: mean of both orientations
T29 chain: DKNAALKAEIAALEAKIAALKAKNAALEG

[30] = target: T30, 4H3162-AA; settings: mean of both orientations
T30 chain: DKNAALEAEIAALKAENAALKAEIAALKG

[31] = target: T31, 4H2620-AA; settings: mean of both orientations
T31 chain: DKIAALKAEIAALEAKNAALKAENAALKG

[32] = target: T32, 4H3056-AA; settings: mean of both orientations
T32 chain: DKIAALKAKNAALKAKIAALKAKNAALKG

B1: 4H1513-AA (peptide)
chain: DENAALEAKNAALKAKIAALKAEIAALEG
In the case of B1, the interaction score [1] is reported as -1, the interaction score [2] is reported as 0.638 and the interaction score [3] is reported as -1.02. It also gave an interaction score [4] of -2.13, an interaction score [5] of -0.131 and an interaction score [6] of -1.06. For the same binder, the interaction score [7] was -1.62, the interaction score [8] was -1.9 and the interaction score [9] was -1.64. The interaction score [10] was 1.82, the interaction score [11] was -1.21 and the interaction score [12] was -1.62. The interaction score [13] was -1.57, the interaction score [14] was -1.77 and the interaction score [15] was -1.35. It also gave an interaction score [16] of -0.0527, an interaction score [17] of -1.55 and an interaction score [18] of -1.86. The interaction score [19] was -0.188, the interaction score [20] was -1.68 and the interaction score [21] was -1.16. For the same binder, the interaction score [22] was -1.65, the interaction score [23] was -1.2 and the interaction score [24] was -1.14. It also gave an interaction score [25] of -0.712, an interaction score [26] of 1.63 and an interaction score [27] of -1.22. It also gave an interaction score [28] of -1.28, an interaction score [29] of 0.267 and an interaction score [30] of -1.99. For the same binder, the interaction score [31] was -1.68 and the interaction score [32] was -1.71.
